Laboratory results: the supplement of paper PMC10567573

B1: PPFIA4 (parent)
chain: PGVHRRYSALREESAKDWETSPLP

Variants of: B1
Test: protein stability index of a GFP-peptide fusion (GPS, HEK-293T) (PSI 1-6); higher = more stable
Conditions: c terminus: a fixed tail appended
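Further: lentivirally expressed fusions sorted by FACS into six bins by GFP to DsRed ratio, PSI derived from sequencing read proportions per bin multiplied by bin number.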

In order of falling protein stability index:
1. PGVHRRYSALREESAKDWETSPKP [L23K]  5.38
2. PGVHRRYSALREESAKDCETSPLP [W18C]  5.36
3. PGVHRRYSALREESAKDTETSPLP [W18T]  5.24
4. PGVHRRYSALREESDKDWETSPLP [A15D]  4.92
5. PGVHRRYSALREESAKDIETSPLP [W18I]  4.81
6. PGVHRRYSALREESAKDWETSPMP [L23M]  4.79
7. PGVHRRYSALREESAKDQETSPLP [W18Q]  4.77
8. PGVHMRYSALREESAKDWETSPLP [R5M]  4.71
9. PGVHRRYSALREESAKDKETSPLP [W18K]  4.7
10. PGVHRRYSALREEEAKDWETSPLP [S14E]  4.69
11. PGVHRRYSALREENAKDWETSPLP [S14N]  4.69
12. PTVHRRYSALREESAKDWETSPLP [G2T]  4.67
13. PGVHRKYSALREESAKDWETSPLP [R6K]  4.65
14. PGVHRRGSALREESAKDWETSPLP [Y7G]  4.62
15. PGVHRRYSALREESAKDWEPSPLP [T20P]  4.6
16. PGVHRRKSALREESAKDWETSPLP [Y7K]  4.58
17. PGVHRRYSALREESAKDWENSPLP [T20N]  4.55
18. PGVHRRYSALREESAKDWETSPHP [L23H]  4.53
19. PGVHRRYSALREESEKDWETSPLP [A15E]  4.52
20. PGVHRRNSALREESAKDWETSPLP [Y7N]  4.5
21. PGVHRRVSALREESAKDWETSPLP [Y7V]  4.49
22. PGVHRRYSAHREESAKDWETSPLP [L10H]  4.48
23. PGVHRRYSALREESADDWETSPLP [K16D]  4.45
24. PQVHRRYSALREESAKDWETSPLP [G2Q]  4.43
25. KGVHRRYSALREESAKDWETSPLP [P1K]  4.41
26. PDVHRRYSALREESAKDWETSPLP [G2D]  4.4
27. PGVHRRYSALREESAKDWEMSPLP [T20M]  4.37
28. PGVTRRYSALREESAKDWETSPLP [H4T]  4.36
29. PGVHRTYSALREESAKDWETSPLP [R6T]  4.35
30. PGVHKRYSALREESAKDWETSPLP [R5K]  4.34
31. PGVHRRYSALREESAKDWETSSLP [P22S]  4.31
32. PGVHRRYSAFREESAKDWETSPLP [L10F]  4.29
33. PGVHRRYPALREESAKDWETSPLP [S8P]  4.28
34. PGVHRRTSALREESAKDWETSPLP [Y7T]  4.27
35. PGVHRRYSAVREESAKDWETSPLP [L10V]  4.26
36. PGVARRYSALREESAKDWETSPLP [H4A]  4.25
37. PGVHRRYSALVEESAKDWETSPLP [R11V]  4.21
38. PVVHRRYSALREESAKDWETSPLP [G2V]  4.16
39. PGVHRRYSALREESPKDWETSPLP [A15P]  4.12
40. PRVHRRYSALREESAKDWETSPLP [G2R]  4.11
41. PGVHRRYSALREESAKDWETPPLP [S21P]  4.08
42. PGVHRRYSALREESAKDWETTPLP [S21T]  4.07
43. PGVHRRYSALRDESAKDWETSPLP [E12D]  4.05
44. PGVHRRYSALREESALDWETSPLP [K16L]  4.05
45. PGVHRRYSKLREESAKDWETSPLP [A9K]  4.03
46. PGVHRRYSALREESAKDWETRPLP [S21R]  4.03
47. PGVHRRYSALRTESAKDWETSPLP [E12T]  4.02
48. PGFHRRYSALREESAKDWETSPLP [V3F]  4.02
49. PGVHRRYSAYREESAKDWETSPLP [L10Y]  4.02
50. PGVHRSYSALREESAKDWETSPLP [R6S]  4
51. PGVHRRYSALREESRKDWETSPLP [A15R]  4
52. PGVHRRYSALREESAKDWETSPLM [P24M]  3.97
53. PGVHRRYSALREESAKVWETSPLP [D17V]  3.86
54. PGVHRRYSALLEESAKDWETSPLP [R11L]  3.86
55. PGVLRRYSALREESAKDWETSPLP [H4L]  3.77
56. PGVHRRYHALREESAKDWETSPLP [S8H]  3.76
57. PGVHRRYSALREESAKDWETVPLP [S21V]  3.76
58. PGVHRRYSALREESAKDWECSPLP [T20C]  3.75
59. PGVHRRYSALREDSAKDWETSPLP [E13D]  3.74
60. PGVHRCYSALREESAKDWETSPLP [R6C]  3.72
61. PGVHRRYSAAREESAKDWETSPLP [L10A]  3.69
62. PGVHRRYSALRQESAKDWETSPLP [E12Q]  3.68
63. PGVHRRYSALREESAKDWKTSPLP [E19K]  3.68
64. PGVHRRYSCLREESAKDWETSPLP [A9C]  3.67
65. PGVHRRYSALREESAQDWETSPLP [K16Q]  3.67
66. PGVHYRYSALREESAKDWETSPLP [R5Y]  3.66
67. PMVHRRYSALREESAKDWETSPLP [G2M]  3.62
68. PGVHRRYSALRCESAKDWETSPLP [E12C]  3.57
69. PGYHRRYSALREESAKDWETSPLP [V3Y]  3.55
70. AGVHRRYSALREESAKDWETSPLP [P1A]  3.5
71. EGVHRRYSALREESAKDWETSPLP [P1E]  3.49
72. PGVHRRYSALRYESAKDWETSPLP [E12Y]  3.48
73. PGVHRRYSALREEYAKDWETSPLP [S14Y]  3.46
74. PGVHRRYSALREESAKDWEYSPLP [T20Y]  3.46
75. PGVHRRYSALRRESAKDWETSPLP [E12R]  3.45
76. PCVHRRYSALREESAKDWETSPLP [G2C]  3.42
77. PGVHRRYSALRENSAKDWETSPLP [E13N]  3.42
78. PGVHRRYSALREESAKDWHTSPLP [E19H]  3.41
79. PGVHRRYSALGEESAKDWETSPLP [R11G]  3.41
80. PGVHRRYSALREESAKQWETSPLP [D17Q]  3.39
81. PGVHRRYSALRELSAKDWETSPLP [E13L]  3.34
82. PGVHRRYSALREESAKTWETSPLP [D17T]  3.31
83. PGVHRRYSALREESAKDWETSFLP [P22F]  3.19
84. PHVHRRYSALREESAKDWETSPLP [G2H]  3.18
85. PGVHRRYSALWEESAKDWETSPLP [R11W]  3.16
86. PGVHRRYSALREYSAKDWETSPLP [E13Y]  3.14
87. PGVHRRYFALREESAKDWETSPLP [S8F]  3.08
88. PGVHRRYSALREESAKPWETSPLP [D17P]  3.04
89. PGVHRRYSALREESAKDWATSPLP [E19A]  2.97
90. PGVHRRYSALREMSAKDWETSPLP [E13M]  2.96
91. PGVHRRYSALREESAKDWMTSPLP [E19M]  2.93
92. PGVHRRYSALREESAKLWETSPLP [D17L]  2.89
93. PGVCRRYSALREESAKDWETSPLP [H4C]  2.79
94. PGVHRRYSALREHSAKDWETSPLP [E13H]  2.63
